T1: GST-RB fusion protein (UniProt P06400 1-928)
T1 construct: not shown: glutathione S-transferase tag of the pGEX-6P vector (Amersham/Pharmacia)
T1 sequence (looked up): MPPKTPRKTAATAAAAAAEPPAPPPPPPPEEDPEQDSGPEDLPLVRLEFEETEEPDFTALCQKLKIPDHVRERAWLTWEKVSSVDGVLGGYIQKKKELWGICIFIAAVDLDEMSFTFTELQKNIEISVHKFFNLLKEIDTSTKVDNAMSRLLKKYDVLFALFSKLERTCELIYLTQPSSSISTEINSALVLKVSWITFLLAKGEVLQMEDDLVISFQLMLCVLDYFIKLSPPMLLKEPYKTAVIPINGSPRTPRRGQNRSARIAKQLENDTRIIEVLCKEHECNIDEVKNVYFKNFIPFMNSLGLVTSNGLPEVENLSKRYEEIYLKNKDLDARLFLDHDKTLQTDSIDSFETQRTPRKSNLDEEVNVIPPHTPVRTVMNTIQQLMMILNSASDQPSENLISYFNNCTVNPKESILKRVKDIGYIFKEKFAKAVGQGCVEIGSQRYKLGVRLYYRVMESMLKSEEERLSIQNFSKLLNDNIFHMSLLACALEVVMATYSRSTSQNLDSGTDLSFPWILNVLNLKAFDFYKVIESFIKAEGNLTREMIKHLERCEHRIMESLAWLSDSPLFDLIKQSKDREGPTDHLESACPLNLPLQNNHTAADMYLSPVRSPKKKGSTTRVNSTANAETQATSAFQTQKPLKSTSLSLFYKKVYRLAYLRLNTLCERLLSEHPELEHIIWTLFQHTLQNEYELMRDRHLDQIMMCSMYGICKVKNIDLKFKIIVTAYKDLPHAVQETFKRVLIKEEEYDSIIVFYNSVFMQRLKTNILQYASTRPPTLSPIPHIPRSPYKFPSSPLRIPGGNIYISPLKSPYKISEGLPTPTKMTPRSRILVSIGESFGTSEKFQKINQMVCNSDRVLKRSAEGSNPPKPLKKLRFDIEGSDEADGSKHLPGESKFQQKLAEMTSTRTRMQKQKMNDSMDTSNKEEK


How the values were obtained:
GST-RB fusion protein [1] = target: T1, GST-RB fusion protein; experiment: GST pull-down of S35-labeled in vitro translated protein with GST-RB
GST-RB fusion protein [2] = target: T1, GST-RB fusion protein; experiment: GST pull-down of S35-labeled in vitro translated protein with GST-RB on glutathione sepharose beads
Method: GST-RB and GST were bound to glutathione sepharose beads and incubated with S³⁵-labeled in vitro translated PRMT1, PRMT2, PRMT3, and PRMT4. Co-precipitated labeled PRMTs were analyzed by SDS-PAGE. […] HA-tagged PRMT2 (+) or control vectors (−) were transfected in 293 cells. Cell lysates were immunoprecipitated with rabbit RB antibodies or IgG and followed by Western blot analysis using mouse HA and RB antibodies (upper panel). A Western blot using mouse HA antibodies detects HA-tagged PRMT2 (lower panel).
The crude cell lysate of the GST-fusion proteins was prepared and purified according to the manufacture's protocol (Amersham/Pharmacia). [³⁵S]-methionine-labeled protein was produced by in vitro transcription/translation using the TNT T7-coupled reticulocyte lysate system (Promega). [³⁵S]-methionine-labeled protein and GST-fusion protein bound to glutathione sepharose 4B beads were incubated in 500 μl of HNE buffer (50 mM Hepes, pH 7.8, 150 mM NaCl, 1 mM EDTA, 1 mM DTT, 1% NP40, and 1× protease inhibitor mix (Complete: Roche)) at 4° C. for 1 hour. Beads were washed four times with HNE buffer, and then analyzed on an SDS-PAGE gradient gel (4-15%). […]

| binding result (GST-RB fusion protein [1]) | binding result (GST-RB fusion protein [2]) | Binder |
| --- | --- | --- |
| no binding | – | PRMT2(1-95&219-433) (enzyme, [35S]-methionine label in the binding assay, the same deletion was expressed from pVR1012 in the U2OS reporter assay; also called Int-del) MATSGDCPRSESQGEEPAECSEAGLLQEGVQPEEFVAIADYAATDETQLSFLRGEKILILRQTTADWWWGERAGCCGYIPANHVGKHVDEYDPEDFEFMIESILYARDAWLKEDGVIWPTMAALHLVPCSADKDYRSKVLFWDNAYEFNLSALKSLAVKEFFSKPKYNHILKPEDCLSEPCTILQLDMRTVQISDLETLRGELRFDIRKAGTLHGFTAWFSVHFQSLQEGQPPQVLSTGPFHPTTHWKQTLFMMDDPVPVHTGDVVTGSVVLQRNPVWRRHMSVALSWAVTSRQDPTSQKVGEKVFPIWR |
| – | no binding | S35-labeled in vitro translated PRMT4 (CARM1) (human) (enzyme, UniProt Q86X55 2-608, looked up, [35S]-methionine label) AAAAAAVGPGAGGAGSAVPGGAGPCATVSVFPGARLLTIGDANGEIQRHAEQQALRLEVRAGPDSAGIALYSHEDVCVFKCSVSRETECSRVGKQSFIITLGCNSVLIQFATPNDFCSFYNILKTCRGHTLERSVFSERTEESSAVQYFQFYGYLSQQQNMMQDYVRTGTYQRAILQNHTDFKDKIVLDVGCGSGILSFFAAQAGARKIYAVEASTMAQHAEVLVKSNNLTDRIVVIPGKVEEVSLPEQVDIIISEPMGYMLFNERMLESYLHAKKYLKPSGNMFPTIGDVHLAPFTDEQLYMEQFTKANFWYQPSFHGVDLSALRGAAVDEYFRQPVVDTFDIRILMAKSVKYTVNFLEAKEGDLHRIEIPFKFHMLHSGLVHGLAFWFDVAFIGSIMTVWLSTAPTEPLTHWYQVRCLFQSPLFAKAGDTLSGTCLLIANKRQSYDISIVAQVDQTGSKSSNLLDLKNPFFRYTGTTPSPPPGSHYTSPSENMWNTGSTYNLSSGMAVAGMPTAYDLSSVIASGSSVGHNNLIPLANTGIVNHTHSRMGSIMSTGIVQGSSGAQGSGGGSTSAHYAVNSQFTMGGPAISMASPMSIPTNTMHYGS |
| – | no binding | S35-labeled in vitro translated PRMT3 (human) (enzyme, UniProt O60678 2-531, looked up, [35S]-methionine label) CSLASGATGGRGAVENEEDLPELSDSGDEAAWEDEDDADLPHGKQQTPCLFCNRLFTSAEETFSHCKSEHQFNIDSMVHKHGLEFYGYIKLINFIRLKNPTVEYMNSIYNPVPWEKEEYLKPVLEDDLLLQFDVEDLYEPVSVPFSYPNGLSENTSVVEKLKHMEARALSAEAALARAREDLQKMKQFAQDFVMHTDVRTCSSSTSVIADLQEDEDGVYFSSYGHYGIHEEMLKDKIRTESYRDFIYQNPHIFKDKVVLDVGCGTGILSMFAAKAGAKKVLGVDQSEILYQAMDIIRLNKLEDTITLIKGKIEEVHLPVEKVDVIISEWMGYFLLFESMLDSVLYAKNKYLAKGGSVYPDICTISLVAVSDVNKHADRIAFWDDVYGFKMSCMKKAVIPEAVVEVLDPKTLISEPCGIKHIDCHTTSISDLEFSSDFTLKITRTSMCTAIAGYFDIYFEKNCHNRVVFSTGPQSTKTHWKQTVFLLEKPFSVKAGEALKGKVTVHKNKKDPRSLTVTLTLNNSTQTYGLQ |
| no binding | – | PRMT2(1-95) (enzyme, [35S]-methionine label) MATSGDCPRSESQGEEPAECSEAGLLQEGVQPEEFVAIADYAATDETQLSFLRGEKILILRQTTADWWWGERAGCCGYIPANHVGKHVDEYDPED |
